In article doi:10.1101/2024.10.29.620959v2:

Experiments:
[1] = substrate: CCCCCCCCCCCC(=O)O; assay: purified protein; details: pH 7.5
[2] = substrate: CCCCCCCCCCCCCCCC(=O)O; assay: purified protein; details: pH 7.5

B1: FadD5 (Mycobacterium tuberculosis H37Rv) (protein)
chain: MTAQLASHLTRALTLAQQQPYLARRQNWVNQLERHAMMQPDAPALRFVGNTMTWADLRRRVAALAGALSGRGVGFGDRVMILMLNRTEFVESVLAANMIGAIAVPLNFRLTPTEIAVLVEDCVAHVMLTEAALAPVAIGVRNIQPLLSVIVVAGGSSQDSVFGYEDLLNEAGDVHEPVDIPNDSPALIMYTSGTTGRPKGAVLTHANLTGQAMTALYTSGANINSDVGFVGVPLFHIAGIGNMLTGLLLGLPTVIYPLGAFDPGQLLDVLEAEKVTGIFLVPAQWQAVCTEQQARPRDLRLRVLSWGAAPAPDALLRQMSATFPETQILAAFGQTEMSPVTCMLLGEDAIAKRGSVGRVIPTVAARVVDQNMNDVPVGEVGEIVYRAPTLMSCYWNNPEATAEAFAGGWFHSGDLVRMDSDGYVWVVDRKKDMIISGGENIYCAELENVLASHPDIAEVAVIGRADEKWGEVPIAVAAVTNDDLRIEDLGEFLTDRLARYKHPKALEIVDALPRNPAGKVLKTELRLRYGACVNVERRSASAGFTERRENRQKL
Protein B1 has a Km [1] of 102 ± 8.55 µM and a Km [2] of 89.83 ± 9.71 µM.
